Test results taken from publication doi:10.1101/2024.11.15.623645 (bioRxiv, 2024).

B1: 2G12 soluble IgG mAb (antibody, V domains shown)
VH: EVQLVESGGGLVKAGGSLILSCGVSNFRISAHTMNWVRRVPGGGLEWVASISTSSTYRDYADAVKGRFTVSRDDLEDFVYLQMHKMRVEDTAIYYCARKGSDRLSDNDPFDAWGPGTVVTVSP
VL: DVVMTQSPSTLSASVGDTITITCRASQSIETWLAWYQQKPGKAPKLLIYKASTLKTGVPSRFSGSGSGTEFTLTISGLQFDDFATYHCQHYAGYSATFGQGTRVEIK

Tests used:
Assay in all cases: SPR
[1] = biological target: 2G12 IgG BCR complex (membrane IgG with Igα/Igβ) (human | human (endogenous in Ramos)) (UniProt P11912)
[2] = biological target: 2G12 IgM BCR complex (membrane IgM with Igα/Igβ) (human | human (endogenous in Ramos)) (UniProt P11912)
[3] = biological target: HIV-1 Env gp140 trimer CH505TF v4.1 (non-biotinylated) (HIV-1 clade C, CH505 transmitted/founder, UniProt M4M3Q1, stabilised)

| Molecule | kon [1] [M⁻¹ s⁻¹] | kon [2] [M⁻¹ s⁻¹] | binding result [3] |
| --- | --- | --- | --- |
| HIV-1 Env gp140 trimer CH848 (non-biotinylated) | > 100000 | > 100000 | – |
| HIV-1 Env gp140 trimer CAP256 (non-biotinylated) | > 100000 | > 100000 | – |
| HIV-1 Env gp140 trimer BG505 GT1.2 (non-biotinylated) | > 100000 | > 100000 | – |
| HIV-1 Env gp140 trimer JRFL (non-biotinylated) | > 100000 | > 100000 | – |
| HIV-1 Env gp140 trimer CH505TF v4.1 (non-biotinylated) | > 100000 | > 100000 | – |
| B1 | – | – | binds |
